For this assay, the target named is T1, human clathrin heavy chain (CHC) (human, UniProt Q00610 2-1675).
T1 construct: Endogenous ~190 kDa protein of human cancer cell lines (MIA PaCa-2 and others); No recombinant construct was used; also called CLTC gene product
Description: hybridoma mAb, target identification.

T1 sequence (Q00610 2-1675 limits assumed): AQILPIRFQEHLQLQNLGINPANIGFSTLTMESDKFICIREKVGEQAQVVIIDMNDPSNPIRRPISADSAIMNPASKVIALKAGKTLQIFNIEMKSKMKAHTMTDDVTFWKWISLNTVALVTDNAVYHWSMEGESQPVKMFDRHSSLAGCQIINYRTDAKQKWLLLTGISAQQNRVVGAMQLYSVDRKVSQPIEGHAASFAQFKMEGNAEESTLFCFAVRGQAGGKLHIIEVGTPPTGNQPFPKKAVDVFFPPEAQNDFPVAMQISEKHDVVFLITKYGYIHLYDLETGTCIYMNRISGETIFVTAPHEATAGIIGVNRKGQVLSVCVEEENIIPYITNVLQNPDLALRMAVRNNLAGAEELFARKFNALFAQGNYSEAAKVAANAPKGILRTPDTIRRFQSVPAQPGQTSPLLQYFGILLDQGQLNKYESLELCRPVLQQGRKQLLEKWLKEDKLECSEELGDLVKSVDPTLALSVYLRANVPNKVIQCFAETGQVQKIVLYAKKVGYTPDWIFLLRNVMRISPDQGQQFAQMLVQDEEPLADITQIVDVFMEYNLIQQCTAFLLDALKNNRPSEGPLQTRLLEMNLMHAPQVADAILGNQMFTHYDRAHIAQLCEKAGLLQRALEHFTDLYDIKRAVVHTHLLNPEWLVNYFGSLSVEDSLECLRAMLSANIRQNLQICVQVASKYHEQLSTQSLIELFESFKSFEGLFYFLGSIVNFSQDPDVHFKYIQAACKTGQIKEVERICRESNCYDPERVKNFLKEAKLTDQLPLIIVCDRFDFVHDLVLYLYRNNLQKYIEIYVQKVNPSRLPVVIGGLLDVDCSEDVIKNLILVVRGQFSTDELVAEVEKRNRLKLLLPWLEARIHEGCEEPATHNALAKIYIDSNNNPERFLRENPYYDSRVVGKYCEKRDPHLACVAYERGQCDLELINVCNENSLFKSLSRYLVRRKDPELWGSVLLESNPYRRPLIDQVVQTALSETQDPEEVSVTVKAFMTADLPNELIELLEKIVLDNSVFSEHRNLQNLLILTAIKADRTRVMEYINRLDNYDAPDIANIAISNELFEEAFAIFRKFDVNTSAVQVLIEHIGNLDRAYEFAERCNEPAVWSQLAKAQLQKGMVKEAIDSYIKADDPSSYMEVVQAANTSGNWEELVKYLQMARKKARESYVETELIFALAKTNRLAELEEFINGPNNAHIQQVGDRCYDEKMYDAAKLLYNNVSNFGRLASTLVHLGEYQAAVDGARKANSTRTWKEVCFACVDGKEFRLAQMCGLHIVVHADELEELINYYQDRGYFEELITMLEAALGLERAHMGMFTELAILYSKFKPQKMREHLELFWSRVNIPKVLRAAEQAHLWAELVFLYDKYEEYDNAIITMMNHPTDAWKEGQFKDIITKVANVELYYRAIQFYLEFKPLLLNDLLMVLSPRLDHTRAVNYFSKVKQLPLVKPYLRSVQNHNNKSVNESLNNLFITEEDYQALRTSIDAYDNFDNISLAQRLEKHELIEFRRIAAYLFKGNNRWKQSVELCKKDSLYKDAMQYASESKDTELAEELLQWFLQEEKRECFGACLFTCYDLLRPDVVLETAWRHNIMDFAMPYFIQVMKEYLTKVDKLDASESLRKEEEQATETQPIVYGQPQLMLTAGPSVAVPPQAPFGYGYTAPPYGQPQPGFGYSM

B1: Pa65-2 (antibody, V domains shown)
VH: EVKLVESGGGLVKPGGSLNISCAASGFTFSNYVMSWVRQTPEKRLEWVATISSGDNYMYYPDSVKGRFTISSDNAKNTLFLQMSSLRSEDTALYYCARHFDNYEGNSMDYWGQGTSVTVSS
VL: DIVLTQSPATLSVTPGDSVSLSCRASQSIRSNLHWYQQKSHESPRLLIKYASQSISGIPSRFSGSGSGTDFILSINSVATEDFGVYFCQQSNSWPLTFGAGTKLELKR
notes: also called Pa65-2 mAb; anti-CHC monoclonal antibody
B1: the binding result is listed as “binds”.

The values above are taken from patent publication US20130084298A1 (ACADEMIA SINICA, published 2013).
